Here are results for one substance from patent US20210147504A1.

The target of this experiment is rat ANP receptor (NPR-A) (rat) (UniProt P18910). Briefly: cell-based or functional assay.
rat ANP receptor (NPR-A) (rat), sequence (P18910 29-1057): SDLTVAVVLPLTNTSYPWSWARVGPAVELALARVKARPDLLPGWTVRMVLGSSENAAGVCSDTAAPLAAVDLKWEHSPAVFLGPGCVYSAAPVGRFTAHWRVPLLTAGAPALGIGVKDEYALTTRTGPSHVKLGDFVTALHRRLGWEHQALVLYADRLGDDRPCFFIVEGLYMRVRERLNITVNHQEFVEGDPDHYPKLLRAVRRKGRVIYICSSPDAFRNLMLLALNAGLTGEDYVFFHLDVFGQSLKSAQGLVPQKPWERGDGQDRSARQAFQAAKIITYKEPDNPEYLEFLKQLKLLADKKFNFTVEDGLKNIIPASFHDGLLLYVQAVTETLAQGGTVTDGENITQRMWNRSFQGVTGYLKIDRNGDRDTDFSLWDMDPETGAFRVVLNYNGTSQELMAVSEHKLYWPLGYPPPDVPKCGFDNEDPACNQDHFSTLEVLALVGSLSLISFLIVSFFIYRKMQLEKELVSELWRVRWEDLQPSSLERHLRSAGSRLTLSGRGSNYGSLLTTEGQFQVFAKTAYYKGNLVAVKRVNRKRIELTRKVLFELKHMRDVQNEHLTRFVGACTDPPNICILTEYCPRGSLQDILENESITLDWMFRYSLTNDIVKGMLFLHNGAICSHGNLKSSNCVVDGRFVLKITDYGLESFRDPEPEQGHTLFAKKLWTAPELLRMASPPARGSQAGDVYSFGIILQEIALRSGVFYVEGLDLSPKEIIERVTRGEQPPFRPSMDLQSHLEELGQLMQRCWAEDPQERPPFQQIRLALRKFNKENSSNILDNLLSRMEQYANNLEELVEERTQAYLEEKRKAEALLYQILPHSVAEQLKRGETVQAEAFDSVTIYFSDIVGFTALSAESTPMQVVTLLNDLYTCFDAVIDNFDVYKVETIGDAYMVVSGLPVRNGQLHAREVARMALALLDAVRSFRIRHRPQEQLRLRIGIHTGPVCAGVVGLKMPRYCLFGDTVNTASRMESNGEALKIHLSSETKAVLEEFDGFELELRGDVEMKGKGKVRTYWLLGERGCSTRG

The substance BNP (Bachem, H-5968) (peptide) returned an EC50, fluorescence signal of rat NPR-A cGMP reporter CHO cell line (GCaMP6/CNGA2) of 2.9 nM.
